Laboratory results as given in patent US11325966.

Assays:
Assay in all cases: cell-based or functional assay
[1] = target: HIV-1 Env of pseudovirus 231965.c01 (HIV-1)
[2] = target: HIV-1 Env of pseudovirus 231966.c02 (HIV-1)
[3] = target: HIV-1 Env of pseudovirus 235-47 (HIV-1)
[4] = target: HIV-1 Env of pseudovirus 263-8 (HIV-1)
[5] = target: HIV-1 Env of pseudovirus 3016.v5.c45 (HIV-1)
[6] = target: HIV-1 Env of pseudovirus 3103.v3.c10 (HIV-1)
[7] = target: HIV-1 Env of pseudovirus 3415.v1.c1 (HIV-1)
[8] = target: HIV-1 Env of pseudovirus BF1266.431a (HIV-1)
[9] = target: HIV-1 Env of pseudovirus BJOX009000.02.4 (HIV-1)
[10] = target: HIV-1 Env of pseudovirus BJOX015000.11.5 (HIV-1)
[11] = target: HIV-1 Env of pseudovirus BJOX025000.01.1 (HIV-1)
[12] = target: HIV-1 Env of pseudovirus C1080.c03 (HIV-1)
[13] = target: HIV-1 Env of pseudovirus C2101.c01 (HIV-1)
[14] = target: HIV-1 Env of pseudovirus CAP210.2.00.E8 (HIV-1)
[15] = target: HIV-1 Env of pseudovirus CNE30 (HIV-1)
[16] = target: HIV-1 Env of pseudovirus CNE53 (HIV-1)
[17] = target: HIV-1 Env of pseudovirus CNE8 (HIV-1)
[18] = target: HIV-1 Env of pseudovirus Ce1172_H1 (HIV-1)
[19] = target: HIV-1 Env of pseudovirus Ce1176_A3 (HIV-1)
[20] = target: HIV-1 Env of pseudovirus Du172.17 (HIV-1)
[21] = target: HIV-1 Env of pseudovirus Du422.1 (HIV-1)
[22] = target: HIV-1 Env of pseudovirus HIV-0013095-2.11 (HIV-1)
[23] = target: HIV-1 Env of pseudovirus HIV-16845-2.22 (HIV-1)
[24] = target: HIV-1 Env of pseudovirus MS208.A1 (HIV-1)
[25] = target: HIV-1 Env of pseudovirus P0402_c2_11 (HIV-1)
[26] = target: HIV-1 Env of pseudovirus PVO.4 (HIV-1)
[27] = target: HIV-1 Env of pseudovirus Q23.17 (HIV-1)
[28] = target: HIV-1 Env of pseudovirus Q259.d2.17 (HIV-1)
[29] = target: HIV-1 Env of pseudovirus QH0692.42 (HIV-1)
[30] = target: HIV-1 Env of pseudovirus R1166.c01 (HIV-1)
[31] = target: HIV-1 Env of pseudovirus R3265.c06 (HIV-1)
[32] = target: HIV-1 Env of pseudovirus RHPA4259.7 (HIV-1)
[33] = target: HIV-1 Env of pseudovirus T278-50 (HIV-1)
[34] = target: HIV-1 Env of pseudovirus THRO4156.18 (HIV-1)
[35] = target: HIV-1 Env of pseudovirus WEAU_d15_410_787 (HIV-1)
[36] = target: HIV-1 Env of pseudovirus WITO4160.33 (HIV-1)
[37] = target: HIV-1 Env of pseudovirus X1193_c1 (HIV-1)
[38] = target: HIV-1 Env of pseudovirus ZM214M.PL15 (HIV-1)
[39] = target: HIV-1 Env of pseudovirus ZM233M.PB6 (HIV-1)
[40] = target: HIV-1 Env of pseudovirus ZM249M.PL1 (HIV-1)

With BG18 IgG (354BG18) (antibody) the IC50 in TZM-bl assay [1] was > 30 µg/mL, the IC80 in TZM-bl assay [1] was > 30 µg/mL and the IC50 in TZM-bl assay [2] was > 30 µg/mL. The IC80 in TZM-bl assay [2] was > 30 µg/mL, the IC50 in TZM-bl assay [3] was 0.005 µg/mL and the IC80 in TZM-bl assay [3] was 0.017 µg/mL. For the same substance, the IC50 in TZM-bl assay [4] was 1.38 µg/mL, the IC80 in TZM-bl assay [4] was 7.55 µg/mL and the IC50 in TZM-bl assay [5] was > 30 µg/mL. For the same substance, the IC80 in TZM-bl assay [5] was > 30 µg/mL, the IC50 in TZM-bl assay [6] was 0.002 µg/mL and the IC80 in TZM-bl assay [6] was 0.005 µg/mL. The IC50 in TZM-bl assay [7] was 0.023 µg/mL, the IC80 in TZM-bl assay [7] was 0.087 µg/mL and the IC50 in TZM-bl assay [8] was > 30 µg/mL. The IC80 in TZM-bl assay [8] was > 30 µg/mL, the IC50 in TZM-bl assay [9] was 24.4 µg/mL and the IC80 in TZM-bl assay [9] was > 30 µg/mL. For the same substance, the IC50 in TZM-bl assay [10] was > 30 µg/mL, the IC80 in TZM-bl assay [10] was > 30 µg/mL and the IC50 in TZM-bl assay [11] was > 30 µg/mL. For the same substance, the IC80 in TZM-bl assay [11] was > 30 µg/mL, the IC50 in TZM-bl assay [12] was 5.37 µg/mL and the IC80 in TZM-bl assay [12] was > 30 µg/mL. For the same substance, the IC50 in TZM-bl assay [13] was > 30 µg/mL, the IC80 in TZM-bl assay [13] was > 30 µg/mL and the IC50 in TZM-bl assay [14] was 3.47 µg/mL. It also gave an IC80 in TZM-bl assay [14] of 10.7 µg/mL, an IC50 in TZM-bl assay [15] of 0.019 µg/mL and an IC80 in TZM-bl assay [15] of 0.059 µg/mL. The IC50 in TZM-bl assay [16] was 0.003 µg/mL, the IC80 in TZM-bl assay [16] was 0.011 µg/mL and the IC50 in TZM-bl assay [17] was > 30 µg/mL. The IC80 in TZM-bl assay [17] was > 30 µg/mL, the IC50 in TZM-bl assay [18] was 0.002 µg/mL and the IC80 in TZM-bl assay [18] was 0.007 µg/mL. The IC50 in TZM-bl assay [19] was 0.004 µg/mL, the IC80 in TZM-bl assay [19] was 0.012 µg/mL and the IC50 in TZM-bl assay [20] was > 30 µg/mL. For the same substance, the IC80 in TZM-bl assay [20] was > 30 µg/mL, the IC50 in TZM-bl assay [21] was 0.009 µg/mL and the IC80 in TZM-bl assay [21] was 0.057 µg/mL. For the same substance, the IC50 in TZM-bl assay [22] was 10.5 µg/mL, the IC80 in TZM-bl assay [22] was 30 µg/mL and the IC50 in TZM-bl assay [23] was 0.019 µg/mL. For the same substance, the IC80 in TZM-bl assay [23] was 0.09 µg/mL, the IC50 in TZM-bl assay [24] was > 30 µg/mL and the IC80 in TZM-bl assay [24] was > 30 µg/mL. For the same substance, the IC50 in TZM-bl assay [25] was 0.005 µg/mL, the IC80 in TZM-bl assay [25] was 0.029 µg/mL and the IC50 in TZM-bl assay [26] was 0.003 µg/mL. For the same substance, the IC80 in TZM-bl assay [26] was 0.013 µg/mL, the IC50 in TZM-bl assay [27] was 0.006 µg/mL and the IC80 in TZM-bl assay [27] was 0.02 µg/mL. The IC50 in TZM-bl assay [28] was > 30 µg/mL, the IC80 in TZM-bl assay [28] was > 30 µg/mL and the IC50 in TZM-bl assay [29] was 0.013 µg/mL. The IC80 in TZM-bl assay [29] was 0.042 µg/mL, the IC50 in TZM-bl assay [30] was > 30 µg/mL and the IC80 in TZM-bl assay [30] was > 30 µg/mL. For the same substance, the IC50 in TZM-bl assay [31] was > 30 µg/mL, the IC80 in TZM-bl assay [31] was > 30 µg/mL and the IC50 in TZM-bl assay [32] was 1.44 µg/mL. For the same substance, the IC80 in TZM-bl assay [32] was > 30 µg/mL, the IC50 in TZM-bl assay [33] was 2.95 µg/mL and the IC80 in TZM-bl assay [33] was 12.9 µg/mL. The IC50 in TZM-bl assay [34] was > 30 µg/mL, the IC80 in TZM-bl assay [34] was > 30 µg/mL and the IC50 in TZM-bl assay [35] was 0.003 µg/mL. It also gave an IC80 in TZM-bl assay [35] of 0.012 µg/mL, an IC50 in TZM-bl assay [36] of 0.018 µg/mL and an IC80 in TZM-bl assay [36] of 0.25 µg/mL. For the same substance, the IC50 in TZM-bl assay [37] was 0.005 µg/mL, the IC80 in TZM-bl assay [37] was 0.022 µg/mL and the IC50 in TZM-bl assay [38] was > 30 µg/mL. The IC80 in TZM-bl assay [38] was > 30 µg/mL, the IC50 in TZM-bl assay [39] was 2.87 µg/mL and the IC80 in TZM-bl assay [39] was 29.8 µg/mL. For the same substance, the IC50 in TZM-bl assay [40] was > 30 µg/mL and the IC80 in TZM-bl assay [40] was > 30 µg/mL.
